We go through eleven molecules from patent publication EP4814014A1, “BINDING MOLECULE AND ANTIBODY-DRUG CONJUGATE AND USE THEREOF” (priority 2023, dated 2025).

Test [1] deals with EBC-1. The test is described as follows: Cell killing assay of ADCs (CCK8), EBC-1. The class given is cell-based, human. The following applies: Table 10A; Target cell: EBC-1; 3-5 days. On the procedure: Killing of target cells MDA-MB-468, EBC-1, and NCI-H1975 cells (Cell Bank of the Chinese Academy of Sciences) by the ADC molecules formed by conjugating the […] anti-EGFR/cMet antibody molecules described above to a toxin was assayed by the […].
The cells (100 µL, 1 × 10^4) resuspended in a cell culture medium were seeded into each well of a 96-well plate and cultured in an incubator at 37 °C with 5% CO2 overnight. The next day, 100 µL of serially diluted V-20-Fc-PEG-EVC-MMAE, V-23-Fc-PEG-EVC-MMAE, and V-26-Fc-PEG-EVC-MMAE, as well as positive control ADCs ABBV399 and AZD9592 were added to corresponding wells. The cells were cultured for another 3-5 days. Then, 20 µL of CCK8 (Shanghai Life iLab Biotech, Cat. No. AC11L054) was added to each well. The mixtures were cultured in an incubator at 37 °C with 5% CO2 until color development. The absorbance at 450 nm was recorded using a microplate reader (Molecular Device, SpectraMax M5).
The cell viability was calculated by the following formula: percentage cell viability = [(As - Ab) / (Ac - Ab)] × 100. As = experimental well absorbance (cells, culture medium, CCK8, and ADCs); Ab = blank well absorbance (culture medium and CCK8); Ac = control well absorbance (cells, culture medium, and CCK8).

Test [2] concerns the target Human EGFR antigen (SPR of Example 4.4) (human, UniProt P00533 25-645). The test can be described thus: SPR method II, antibody captured on Protein A chip, antigen injected, 1:1 model.
In test [3] the target is Cyno EGFR antigen (SPR of Example 4.4) (cynomolgus monkey, UniProt A0A2K5WK39 25-645). Described as above.
The target in test [4] is T1, Human cMet antigen (human, UniProt P08581 25-932).
T1 construct: treated as one molecule; also called Human cMet-His antigen
Described as above.

The target of test [5] is T2, Cynomolgus monkey cMet antigen (cynomolgus monkey, UniProt A0A2K5UM36 25-932).
T2 construct: treated as one molecule; also called cynomolgus monkey cMet-His antigen; Cyno cMet
Described as above.

The target in test [6] is T3, human cMet on cells (human, UniProt P08581 25-1390).
T3 construct: whole, on cells; Cell lines: CHO-S-cMet, CHOK1-hucMet, EBC-1, MKN45, NCI-H1975; the cell line is named under assay; also called CHO-S-cMet; CHOK1-hucMet
The test can be described thus: FACS, VHH-His on MKN45 cells.

Test [7] addresses T1, Human cMet antigen. The test can be described thus: ELISA, antigen coated at 1 ug/mL, VHH-Fc titrated.
The target in test [8] is T2, Cynomolgus monkey cMet antigen. The test is described as follows: ELISA, antigen coated at 1 ug/mL, VHH-Fc titrated.
Test [9] concerns the target T3, human cMet on cells. The test can be described thus: FACS competition on EBC-1 cells, HGF-His as the ligand detected, VHH-Fc from 100 nM.
The target in test [10] is T3, human cMet on cells. The test can be described thus: FACS on EBC-1 cells.
Test [11] deals with T3, human cMet on cells. The test is described as follows: FACS, VHH-His on CHOK1-hucMet cells.
Test [12] has as its target T1, Human cMet antigen. The test is described as follows: SPR method I, antigen on CM5 chip, VHH-His injected, 1:1 model.
The target of test [13] is T2, Cynomolgus monkey cMet antigen. Described as above.
The target in test [14] is T3, human cMet on cells. The test can be described thus: FACS, VHH-His on MKN45 cells. This is another data set of the same source.
Test [15] deals with T3, human cMet on cells. The test is described as follows: FACS, VHH-His on MKN45 cells. The source holds these as a separate data set.
Test [16] has as its target T3, human cMet on cells. The test is described as follows: FACS, VHH-His on CHOK1-hucMet cells. This is another data set of the same source.
Test [17] has as its target T3, human cMet on cells. The test can be described thus: FACS, VHH-His on EBC-1 cells (cell column empty in this row).

Where a chain is given by its changes, count along the chain named.

T3 sequence (P08581 25-1390): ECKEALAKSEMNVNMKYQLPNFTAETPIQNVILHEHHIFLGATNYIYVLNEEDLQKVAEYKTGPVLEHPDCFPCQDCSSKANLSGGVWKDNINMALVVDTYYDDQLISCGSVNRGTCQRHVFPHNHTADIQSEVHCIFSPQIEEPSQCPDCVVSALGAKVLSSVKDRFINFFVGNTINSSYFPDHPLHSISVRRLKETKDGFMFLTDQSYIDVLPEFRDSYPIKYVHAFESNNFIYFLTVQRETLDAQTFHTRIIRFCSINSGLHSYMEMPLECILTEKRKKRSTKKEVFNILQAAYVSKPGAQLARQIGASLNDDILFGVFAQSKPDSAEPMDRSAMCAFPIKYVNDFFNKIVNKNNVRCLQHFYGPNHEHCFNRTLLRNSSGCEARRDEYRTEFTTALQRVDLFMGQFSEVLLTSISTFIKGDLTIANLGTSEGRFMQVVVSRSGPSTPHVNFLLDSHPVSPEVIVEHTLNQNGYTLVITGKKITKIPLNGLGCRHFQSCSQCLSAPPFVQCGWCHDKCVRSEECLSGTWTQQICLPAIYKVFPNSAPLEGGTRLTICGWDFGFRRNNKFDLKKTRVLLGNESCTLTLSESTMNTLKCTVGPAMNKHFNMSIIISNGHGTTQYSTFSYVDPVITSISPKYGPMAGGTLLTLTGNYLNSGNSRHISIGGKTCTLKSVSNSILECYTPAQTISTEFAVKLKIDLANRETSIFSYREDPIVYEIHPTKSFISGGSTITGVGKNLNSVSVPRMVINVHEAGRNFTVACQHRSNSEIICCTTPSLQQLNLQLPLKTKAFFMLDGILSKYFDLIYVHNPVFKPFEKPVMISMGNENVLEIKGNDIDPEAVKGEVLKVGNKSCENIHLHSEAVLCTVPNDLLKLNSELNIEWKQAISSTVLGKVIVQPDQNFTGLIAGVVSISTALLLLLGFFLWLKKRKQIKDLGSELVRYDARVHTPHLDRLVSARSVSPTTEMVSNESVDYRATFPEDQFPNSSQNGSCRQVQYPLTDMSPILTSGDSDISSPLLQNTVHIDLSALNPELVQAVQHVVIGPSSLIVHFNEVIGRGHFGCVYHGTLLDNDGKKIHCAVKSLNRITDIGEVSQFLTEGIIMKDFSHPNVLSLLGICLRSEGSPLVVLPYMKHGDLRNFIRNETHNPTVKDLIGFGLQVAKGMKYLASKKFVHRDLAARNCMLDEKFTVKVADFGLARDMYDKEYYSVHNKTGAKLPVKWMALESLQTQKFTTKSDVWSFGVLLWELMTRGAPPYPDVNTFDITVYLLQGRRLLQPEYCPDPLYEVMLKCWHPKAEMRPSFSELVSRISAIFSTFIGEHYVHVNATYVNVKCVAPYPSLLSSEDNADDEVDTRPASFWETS
T2 sequence (A0A2K5UM36 entry or part of it limits assumed, form in doubt): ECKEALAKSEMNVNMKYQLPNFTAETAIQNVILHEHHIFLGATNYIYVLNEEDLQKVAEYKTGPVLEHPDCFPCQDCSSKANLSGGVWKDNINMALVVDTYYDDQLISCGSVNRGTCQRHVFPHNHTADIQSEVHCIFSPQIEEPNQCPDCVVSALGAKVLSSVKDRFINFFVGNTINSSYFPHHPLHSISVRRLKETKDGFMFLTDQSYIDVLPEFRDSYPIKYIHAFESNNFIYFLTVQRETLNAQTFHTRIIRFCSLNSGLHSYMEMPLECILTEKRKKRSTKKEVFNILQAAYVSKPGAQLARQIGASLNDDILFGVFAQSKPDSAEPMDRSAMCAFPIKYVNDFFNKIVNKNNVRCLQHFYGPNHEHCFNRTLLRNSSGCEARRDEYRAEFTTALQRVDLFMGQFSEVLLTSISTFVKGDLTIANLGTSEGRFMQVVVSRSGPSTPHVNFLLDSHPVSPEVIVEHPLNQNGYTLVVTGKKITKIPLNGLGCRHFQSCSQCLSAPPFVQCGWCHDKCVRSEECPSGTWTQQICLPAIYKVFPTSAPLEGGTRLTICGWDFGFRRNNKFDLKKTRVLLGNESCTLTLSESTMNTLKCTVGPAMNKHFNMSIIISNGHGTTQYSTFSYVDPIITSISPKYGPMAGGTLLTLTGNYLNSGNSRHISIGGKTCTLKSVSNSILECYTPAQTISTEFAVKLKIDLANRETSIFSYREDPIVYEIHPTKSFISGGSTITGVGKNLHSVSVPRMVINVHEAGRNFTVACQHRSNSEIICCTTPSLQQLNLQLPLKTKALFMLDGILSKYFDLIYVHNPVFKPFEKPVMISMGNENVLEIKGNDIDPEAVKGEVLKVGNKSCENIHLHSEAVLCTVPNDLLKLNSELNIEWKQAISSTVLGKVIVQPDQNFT
T1 sequence (P08581 25-932): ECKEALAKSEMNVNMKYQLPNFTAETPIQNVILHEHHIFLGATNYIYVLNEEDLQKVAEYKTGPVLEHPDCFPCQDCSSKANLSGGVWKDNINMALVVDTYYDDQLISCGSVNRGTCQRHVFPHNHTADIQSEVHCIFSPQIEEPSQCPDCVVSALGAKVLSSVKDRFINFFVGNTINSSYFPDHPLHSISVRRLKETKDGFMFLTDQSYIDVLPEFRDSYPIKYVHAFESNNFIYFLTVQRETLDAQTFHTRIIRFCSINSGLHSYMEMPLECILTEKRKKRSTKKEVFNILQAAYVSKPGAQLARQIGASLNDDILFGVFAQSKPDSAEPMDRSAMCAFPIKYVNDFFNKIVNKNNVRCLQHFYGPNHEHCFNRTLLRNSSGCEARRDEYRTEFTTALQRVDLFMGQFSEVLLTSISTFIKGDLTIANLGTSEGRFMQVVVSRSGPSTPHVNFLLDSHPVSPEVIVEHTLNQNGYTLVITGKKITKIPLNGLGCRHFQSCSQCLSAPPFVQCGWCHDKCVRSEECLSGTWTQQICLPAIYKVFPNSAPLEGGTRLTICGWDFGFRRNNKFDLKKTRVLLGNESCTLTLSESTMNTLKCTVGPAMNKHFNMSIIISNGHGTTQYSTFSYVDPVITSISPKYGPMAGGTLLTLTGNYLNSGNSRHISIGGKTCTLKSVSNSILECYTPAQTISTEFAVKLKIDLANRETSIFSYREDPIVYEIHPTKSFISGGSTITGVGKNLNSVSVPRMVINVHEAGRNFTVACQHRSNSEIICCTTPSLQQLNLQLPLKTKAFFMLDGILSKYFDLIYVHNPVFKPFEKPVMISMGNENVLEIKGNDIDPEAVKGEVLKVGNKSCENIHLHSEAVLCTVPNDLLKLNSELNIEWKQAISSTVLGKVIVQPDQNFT

For ABBV399 [reference compound], the half-inhibitory concentration (IC50) in test [1] turned out to be 0.194 nM.

B1: V-F42 (hu9B8_Fc)2 (Fc fusion, not shown: a dimerising Fc or GST)
chain: EVQLLESGGGLVQPGGSLRLSCAASGLTFSYYAMAWFRQAPGKEREFVAAINWNQGNTYNTDSVKGRFTISRDNSKNTVYLQMNSLTPEDTAVYYCAVRYNQASYLVARSSDYNYWGQGTLVTVSS
notes: dimeric VHH with an Fc tag at the C-terminus
On to B1, for which, in test [2], the Kd came out at 11.9 nM, the koff amounted to 0.000392 s⁻¹ and the kon stood at 33000 M⁻¹ s⁻¹. Moreover, in [3], binding was characterised by a dissociation constant (Kd) of 2.05 nM, the koff came to 8.04e-05 s⁻¹ and the kon amounted to 39200 M⁻¹ s⁻¹.

B2: Reference benchmark antibody ABT-700 (antibody, V domains shown)
VH: QVQLVQSGAEVKKPGASVKVSCKASGYIFTAYTMHWVRQAPGQGLEWMGWIKPNNGLANYAQKFQGRVTMTRDTSISTAYMELSRLRSDDTAVYYCARSEITTEFDYWGQGTLVTVSS
VL: DIVMTQSPDSLAVSLGERATINCKSSESVDSYANSFLHWYQQKPGQPPKLLIYRASTRESGVPDRFSGSGSGTDFTLTISSLQAEDVAVYYCQQSKEDPLTFGGGTKVEIKR
On to B2, for which, in test [4], the affinity, expressed as Kd, was 0.681 nM; the koff was 7.38e-05 s⁻¹; the on-rate constant (kon) turned out to be 108000 M⁻¹ s⁻¹. In [5], this molecule came in with a Kd of 0.584 nM, a dissociation rate constant (koff) of 7.14e-05 s⁻¹ and a kon of 122000 M⁻¹ s⁻¹.

B3: 7A12-M2 (VHH, not shown: small tags and cut ends)
VHH: EVQLVESGGGLIQPGGSLRLSCKASGNIFSSNHMGWFRQAPGKQLEWVAYITTREITNYADSVKGRFTISRDNSKNTVYLQMNNLRSEDTAVYYCIADQSREIRRSWGQGTLVTVSS
On to B3, for which the Maximum MFI value in [6] was found to be 36700 MFI.

B4: V-n7A12 anti-cMet VHH-Fc (Fc fusion, not shown: a dimerising Fc or GST)
chain: EVQLVESGGGLVQAGGSLRLSCVASGNIFSSNHMGWFRQAPGKQREFIAYITTREITNYADSVKGRFTISRDNTKNTVYLQMNVLKPEDTAVYYCIADQSREIRRSWGQGTQVTVSS
notes: Bivalent VHH-Fc
B4 returned an EC50 in [7] of 0.066 nM. The molecule further came in with an EC50 in test [8] of 0.063 nM. In test [9], the MFI value at the highest concentration stood at 40600 MFI and the ratio of MFI value at the highest concentration to that at the lowest concentration was 2.22.

B5: anti-cMet biepitopic M-1 molecule (bispecific antibody, V domains shown)
V domain 1: QSQLAESGGGLVQSGGSLGLSCVASGFTISRSIMSWYRQPPGKERDWVASIGSAGNTNYVDSVKGRFTISRDVAKNTVYLQMNSLKPEDTAVYYCKTTLAVSFSEYWGQGTQVTVSS
V domain 2: B3 VHH with P14A, K23T, N32Y, L45R, W47F, V48I
notes: Asymmetric double-chain form
Turning to B5, the binding result in test [10] was “binds”.

B6: 7A12-M3 (VHH, not shown: small tags and cut ends)
VHH: B3 VHH with K23T, V48I, L112Q
B6 showed a Maximum MFI value in [6] of 57400 MFI.

B7: dpzn7A12m4.ml_1.m1 (VHH, not shown: small tags and cut ends)
VHH: B3 VHH with I12V, K23T, N32Y, L45R, W47F, V48I, V78L, N84S, S87A
notes: Humanized + PTM removal + secondary immunogenicity removal, anti-cMet VHH-His; also called hu7A12
For B7, a half-maximal response in [11] (EC50) required 2.1 nM.

B8: V-n7A12 anti-cMet VHH-His (VHH, not shown: small tags and cut ends)
VHH: B4 chain
notes: Monovalent parent VHH
Consider B8, for which the EC50 in test [11] was found to be 1.94 nM; in test [14], 3.76 nM; in [15] it was 3.76 nM; in test [16] it was 1.01 nM. Moreover, the Kd in [12] worked out at 0.301 nM; in [13] it was 96 nM. Also, the values for the dissociation rate constant (koff) in [12] and in test [13] were 0.000153 s⁻¹ and 0.00439 s⁻¹, respectively. Moreover, the kon in test [12] amounted to 509000 M⁻¹ s⁻¹; in [13] it was 45800 M⁻¹ s⁻¹. Moreover, the “Maximum MFI value” in [14] was 35600 MFI; in test [15], 35600 MFI; in [16] it was 74200 MFI.

B9: V-n9A2 anti-cMet VHH-Fc (Fc fusion, not shown: a dimerising Fc or GST)
chain: B5 V domain 1
notes: Bivalent VHH-Fc
As for B9, the EC50 in test [7] came out at 0.108 nM. Besides, the EC50 in test [8] turned out to be 0.105 nM. In test [9], the MFI value at the highest concentration is 82200 MFI and the ratio of MFI value at the highest concentration to that at the lowest concentration was found to be 1.12.

B10: VHH11 (VHH, not shown: small tags and cut ends)
VHH: B5 V domain 1 with A5V, Q13K, S14P, G19R, V73N, T77S, V78L, K86R, P87A, Q112L
notes: Humanized 9A2 anti-cMet VHH-His
Molecule B10 showed a half-maximal effective concentration (EC50) in [17] of 2.11 nM.
